# B1: DCTD (parent)
# chain: VKGCSMYVALFPCNECAKLIIQAG
# B2: TRIM35 (parent)
# chain: PTCPVCKDRASPADLRTNHTLNNL
# Variants of: B1
# Experiment: protein stability index of a GFP-peptide fusion (GPS, HEK-293T) (PSI 1-6); higher = more stable
# Conditions: c terminus: a fixed tail appended
# 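Also: lentivirally expressed fusions sorted by FACS into six bins by GFP to DsRed ratio, PSI derived from sequencing read proportions per bin multiplied by bin number.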
row,Variant,protein stability index
1,VKGCSMYVALFPCNECTKLIIQAG,3.02
2,VKGCSMYVALFPCNECHKLIIQAG,3.41

# Variants of: B2
# Experiment: as above
# Conditions: c terminus: a fixed tail appended
row,Variant,protein stability index
1,PTGPVCKDRASPADLRTNHTLNNL,4.3
2,PTEPVCKDRASPADLRTNHTLNNL,4.06
3,PTMPVCKDRASPADLRTNHTLNNL,4.08
4,PTDPVCKDRASPADLRTNHTLNNL,4.75
5,PTFPVCKDRASPADLRTNHTLNNL,3.79
6,PTKPVCKDRASPADLRTNHTLNNL,4
7,PTTPVCKDRASPADLRTNHTLNNL,4.36
8,PTVPVCKDRASPADLRTNHTLNNL,4.1
9,PTYPVCKDRASPADLRTNHTLNNL,3.24
10,PTNPVCKDRASPADLRTNHTLNNL,4.05
11,PTWPVCKDRASPADLRTNHTLNNL,3.89
12,PTQPVCKDRASPADLRTNHTLNNL,4.24
13,PTLPVCKDRASPADLRTNHTLNNL,4.28
14,PTSPVCKDRASPADLRTNHTLNNL,4.55
15,PTRPVCKDRASPADLRTNHTLNNL,4.46
16,PTAPVCKDRASPADLRTNHTLNNL,4.44
17,PTIPVCKDRASPADLRTNHTLNNL,4.38
18,PTHPVCKDRASPADLRTNHTLNNL,3.84
19,PTPPVCKDRASPADLRTNHTLNNL,4.02
20,STCPVCKDRASPADLRTNHTLNNL,2.8
21,ATCPVCKDRASPADLRTNHTLNNL,2.64
22,LTCPVCKDRASPADLRTNHTLNNL,2.62
23,MTCPVCKDRASPADLRTNHTLNNL,2.62

row,Variant,protein stability index
1,YTCPVCKDRASPADLRTNHTLNNL,2.47
2,FTCPVCKDRASPADLRTNHTLNNL,2.11
3,ITCPVCKDRASPADLRTNHTLNNL,2.63
4,VTCPVCKDRASPADLRTNHTLNNL,2.85
5,HTCPVCKDRASPADLRTNHTLNNL,2.95
6,DTCPVCKDRASPADLRTNHTLNNL,3.2
7,KTCPVCKDRASPADLRTNHTLNNL,2.82
8,QTCPVCKDRASPADLRTNHTLNNL,2.7
9,WTCPVCKDRASPADLRTNHTLNNL,1.6
10,RTCPVCKDRASPADLRTNHTLNNL,2.56
11,ETCPVCKDRASPADLRTNHTLNNL,2.75
12,GTCPVCKDRASPADLRTNHTLNNL,2.17
13,TTCPVCKDRASPADLRTNHTLNNL,2.99
14,CTCPVCKDRASPADLRTNHTLNNL,3.87
15,NTCPVCKDRASPADLRTNHTLNNL,2.41
16,PTCPGCKDRASPADLRTNHTLNNL,3.7
17,PTCPACKDRASPADLRTNHTLNNL,3.33
18,PTCPPCKDRASPADLRTNHTLNNL,4.71
19,PTCPNCKDRASPADLRTNHTLNNL,3.3
20,PTCPCCKDRASPADLRTNHTLNNL,3.15
21,PTCPQCKDRASPADLRTNHTLNNL,3.38
22,PTCPDCKDRASPADLRTNHTLNNL,4.16
23,PTCPRCKDRASPADLRTNHTLNNL,2.87

row,Variant,protein stability index
1,PTCPMCKDRASPADLRTNHTLNNL,2.76
2,PTCPFCKDRASPADLRTNHTLNNL,2.04
3,PTCPHCKDRASPADLRTNHTLNNL,2.36
4,PTCPECKDRASPADLRTNHTLNNL,3.65
5,PTCPSCKDRASPADLRTNHTLNNL,3.43
6,PTCPICKDRASPADLRTNHTLNNL,2.69
7,PTCPLCKDRASPADLRTNHTLNNL,2.47
8,PTCPKCKDRASPADLRTNHTLNNL,3.59
9,PHCPVCKDRASPADLRTNHTLNNL,2.82
10,PPCPVCKDRASPADLRTNHTLNNL,3.58
11,PKCPVCKDRASPADLRTNHTLNNL,3.52
12,PLCPVCKDRASPADLRTNHTLNNL,2.79
13,PWCPVCKDRASPADLRTNHTLNNL,2.2
14,PRCPVCKDRASPADLRTNHTLNNL,3.12
15,PACPVCKDRASPADLRTNHTLNNL,3.67
16,PDCPVCKDRASPADLRTNHTLNNL,3.68
17,PICPVCKDRASPADLRTNHTLNNL,2.71
18,PMCPVCKDRASPADLRTNHTLNNL,3.14
19,PECPVCKDRASPADLRTNHTLNNL,3.47
20,PGCPVCKDRASPADLRTNHTLNNL,2.95
21,PQCPVCKDRASPADLRTNHTLNNL,3.27
22,PNCPVCKDRASPADLRTNHTLNNL,3.26
23,PYCPVCKDRASPADLRTNHTLNNL,2.3

row,Variant,protein stability index
1,PSCPVCKDRASPADLRTNHTLNNL,3.24
2,PCCPVCKDRASPADLRTNHTLNNL,2.9
3,PVCPVCKDRASPADLRTNHTLNNL,3.82
4,PFCPVCKDRASPADLRTNHTLNNL,2.33
5,PTCGVCKDRASPADLRTNHTLNNL,2.71
6,PTCNVCKDRASPADLRTNHTLNNL,3.26
7,PTCEVCKDRASPADLRTNHTLNNL,3.42
8,PTCCVCKDRASPADLRTNHTLNNL,2.79
9,PTCYVCKDRASPADLRTNHTLNNL,3.01
10,PTCQVCKDRASPADLRTNHTLNNL,3.28
11,PTCDVCKDRASPADLRTNHTLNNL,3.71
12,PTCWVCKDRASPADLRTNHTLNNL,2.58
13,PTCVVCKDRASPADLRTNHTLNNL,3.19
14,PTCAVCKDRASPADLRTNHTLNNL,2.72
15,PTCHVCKDRASPADLRTNHTLNNL,3.03
16,PTCLVCKDRASPADLRTNHTLNNL,3.32
17,PTCRVCKDRASPADLRTNHTLNNL,3.38
18,PTCTVCKDRASPADLRTNHTLNNL,3.3
19,PTCKVCKDRASPADLRTNHTLNNL,3.21
20,PTCFVCKDRASPADLRTNHTLNNL,2.73
21,PTCIVCKDRASPADLRTNHTLNNL,2.72
22,PTCMVCKDRASPADLRTNHTLNNL,3.16
23,PTCSVCKDRASPADLRTNHTLNNL,2.98
